Substrate in data set [1]: O=C(O)[C@H](O)[C@@H](O)[C@H](O)[C@H](O)CO
The data set can be described thus: purified protein. In kind it is biochemical, Homo sapiens. Conditions: 1 mM ATP, 0.65 mM NADP+, 100 mM phosphate, 40 mM NaCl, 2.5 mM MgCl2, pH 7.2, 0.25 µM enzyme.

Substrate in data set [2]: Nc1ncnc2c1ncn2[C@@H]1O[C@H](COP(=O)(O)OP(=O)(O)OP(=O)(O)O)[C@@H](O)[C@H]1O
Description: purified protein. In kind it is biochemical, Homo sapiens. The settings on record: gluconate as fixed co-substrate, 0.65 mM NADP+, 100 mM phosphate, 40 mM NaCl, 2.5 mM MgCl2, pH 7.2, 0.25 µM enzyme.

These results are taken from paper PMC4045858, “Biochemical Characterization of Human Gluconokinase and the Proposed Metabolic Impact of Gluconic Acid as Determined by Constraint Based Metabolic Network Analysis” (PLoS ONE, 2014).

The Km is the concentration of substrate that gives half-maximal velocity. The Vmax is the top rate of the reaction or transport when substrate is in excess. As usually defined, the kcat is the number of substrate molecules converted per active site and unit of time at saturation. For orientation: kcat/Km means the turnover number divided by the Michaelis constant.

B1: human GntK (gluconokinase isoform I, C9orf103) (Homo sapiens) (protein)
chain: MAAPGALLVMGVSGSGKSTVGALLASELGWKFYDADDYHPEENRRKMGKGIPLNDQDRIPWLCNLHDILLRDVASGQRVVLACSALKKTYRDILTQGKDGVALKCEESGKEAKQAEMQLLVVHLSGSFEVISGRLLKREGHFMPPELLQSQFETLEPPAAPENFIQISVDKNVSEIIATIMETLKMK
notes: dimer, also tetramer
As to B1, in the data set “purified protein [1]”, the Km came out at 106.4 ± 18.5 µM, the Vmax was 138 µM/min, the kcat was found to be 9.3 ± 0.5 s⁻¹ and the kcat/Km was 89000 ± 13000 M⁻¹ s⁻¹. Moreover, in “purified protein [2]”, the Km was found to be 343.8 ± 13.9 µM, the maximal velocity (Vmax) is 144 µM/min, the kcat was 9.5 ± 0.5 s⁻¹ and the kcat/Km was found to be 28000 ± 2000 M⁻¹ s⁻¹.
